Test [1] concerns the target recombinant human IL-1B (human) (UniProt P01584). Kind of test: cell-based or functional assay.
The target of test [2] is Endogenous human IL-1B (THP1 supernatants) (human) (UniProt P01584). Kind of test: cell-based or functional assay.

In the case of “ACZ885 (disclosed in WO 2002/016436) (antibody)”, in test [1], the IC50, rec. human IL-1 B, HEK blue came to 68 pM; the IC50, rec. human IL-1 B, MRC-5 (IL-6 production) was found to be 32 pM; the IC90, rec. human IL-1 B, HEK blue came to 503 pM; the IC90, rec. human IL-1 B, MRC-5 (IL-6 production) came to 449 pM. In addition, in test [2], the IC90, Endogenous human IL-1 B (THP1 supernatants), HEK blue turned out to be 292 pM.

Source of the values: patent WO2016008851A1.
